# System: TO-3-N3-2 (biotin conjugate)
# Test: pull-down binding Z-score (relative to library population); higher = stronger binding
# Conditions: RNA library: Library-2
# Outline: (§1)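 Biotin-conjugated small molecule (100 pmol) on streptavidin beads was incubated with 1 μg of heat-folded Cy5- or Cy3-end-labelled RNA library in phosphate/NaCl/KCl buffer at 25 °C for 60 min. Following three washes, RNA was eluted with hot SDS and hybridised at 55.5 °C for 20 h to a DNA barcode microarray. The binding value is a Z-score computed from the library mean and standard deviation, after subtraction of beads without compound and averaging of barcoded replicate probes with the highest and lowest excluded.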
row,Sequence,pull-down binding Z-score
1,GCCUCUUCUCCAUGAGAGGC [hsa-mir-885],-0.322
2,GCCUGCCCUGAGUCCCCCAGCAGGU [hsa-mir-3907],0.663
3,GCCUGCGGGCAGGAAGCGGA [hsa-mir-3928],1.34
4,GCCUGUGUAGACGGGGACCUGCCCUGCAUGGGCACCCCCUCACUGGC [hsa-mir-6762],0.322
5,GCCUUGUGGCAUGGAGUUCAAGC [hsa-mir-107],0.0909
6,GCCUUGUUGCAUAUGGAUCAAGC [hsa-mir-103a-1],-0.376
7,GCCUUUCAACAUAAUGGC [hsa-mir-548w],-0.214
8,GCGCGGGAAAGUUCGGGAACGCGCG [hsa-mir-4479],0.246
9,GCGGCCGCGCUGGCCGCU [hsa-mir-3665],-0.548
10,GCGGCUGUUAAUGAUUUUAACAGUUGC [hsa-mir-449c],-0.119
11,GCGGGAGCCAGGCCGC [hsa-mir-3185],0.0586
12,GCGGGGAACGAGGCCGUCGGCCAUUUUGUG [hsa-mir-632],0.912
13,GCGGGGGUGGGGGCCUCGCCCUGCUUGGGCCCUCCCUGAC [hsa-mir-6821],1.75
14,GCGGGGUGUGGUGGGGCUGGGGCUGGCCCCCUCCUCACACCUC [hsa-mir-6800],5.35
15,GCGGUUUUUGCCAUUACUUUUCAUUUUUACCAUUAAAAGUAAUGGCAAAAAGCAU [hsa-mir-548q],0.225
16,GCGGUUUUUGCUAUUGGUUUUAAUGGC [hsa-mir-548au],-0.189
17,GCGUCACGUGCACCCAAGUGACGC [hsa-mir-6786],0.171
18,GCGUCGCUUCUCCCUAAUGUUGCC [hsa-mir-6781],0.089
19,GCUAACUGUGACCUUAGC [hsa-mir-4729],-0.181
20,GCUACUGUCUGCACCUGUCACUAGCAGU [hsa-mir-130a],-0.0477
21,GCUAGUGCUGGCUCAAUGCAAUGC [hsa-mir-502],-0.0546
22,GCUCAAGCCACAGCAGGGUGUUUAGCGCUCUUCAGUGGCUCCAG [hsa-mir-1203],-0.102
23,GCUCCCAACCAACCACUUCCACAUGUUUUGCUGGU [hsa-mir-4451],0.239
24,GCUCUAAUAAUUUAUUCUAAUAAUAAUUUAGAUC [hsa-mir-7976],-0.379
25,GCUCUGGGGAUUUGGUCUCACAGC [hsa-mir-3940],-0.38
26,GCUGAAACACAGUUGGUUUGUGUACACUGGC [hsa-mir-24-2],-0.521
27,GCUGAACCCCUGCCCCUGGAGCCCCCAGCAGGGCCCUC [hsa-mir-7162],0.612
28,GCUGAGCCCUUUGAUAAGGGGGAGGUU [hsa-mir-8080],-0.219

row,Sequence,pull-down binding Z-score
1,GCUGAGGUUGCGUUGACGCUCGC [hsa-mir-1292],-0.0926
2,GCUGCACUGUCUCCGUCUGCGG [hsa-mir-4519],0.0588
3,GCUGCAGAUCUUUGUCUAAGCAGC [hsa-mir-4498],-0.207
4,GCUGCAGGCAAAGCUGGGG [hsa-mir-711],0.123
5,GCUGCCAGGAAAUCCCUAUUUCAUAUAAGAGGGGGCUGGCUGGUUGC [hsa-mir-448],0.236
6,GCUGCCAUCUCCCACUGGCUGC [hsa-mir-4736],-0.495
7,GCUGCCCCUUUGCUCUCUGGGGUAGC [hsa-mir-3614],0.0223
8,GCUGCUGCCCCAGAGGCCCAGCAGGUGUCCAGAAC [hsa-mir-6750],0.49
9,GCUGCUGGUGCUCAUCUCAGC [hsa-mir-6877],-0.0239
10,GCUGCUUGCACUCGUUCAGC [hsa-mir-3661],-0.246
11,GCUGGAGUAAGGGCACGCCCGGGGCUGC [hsa-mir-4758],0.383
12,GCUGGAUUUCCCAGCUUGACUCUAAC [hsa-mir-200a],-0.242
13,GCUGGGCUGAGCUAACCAGGGCUGGGCUGAGC [hsa-mir-4537],-0.0332
14,GCUGGGGACUGGAGAA [hsa-mir-4489],1.32
15,GCUGGGGCGCGGGCUUUCGCUUUCAGUCGAGGGCUAGCGAGCGCAGC [hsa-mir-7846],0.105
16,GCUGGGGGUAAAUGACUUGCACAUGAACACAAC [hsa-mir-708],0.191
17,GCUGGUCGCGGGUUGUGGGGUUUAGGUCACCGGC [hsa-mir-5091],2.9
18,GCUGGUGACAUUGCUAAUUCAUUUCACACCAGC [hsa-mir-4293],-0.177
19,GCUGUGUUGAAUGAUUGGUGAGUUUGUUUGCUCAUUGAUUGAAUCACUGC [hsa-mir-3678],0.121
20,GCUGUUGGUCGGGUUGUGACAUUGCCCGCUGUGGAGAUAACUGC [hsa-let-7i],0.672
21,GCUUAUACGUGCCCUUGCU [hsa-mir-8075],0.345
22,GCUUAUGGGGAUAUUGUGGUUGAUCUGUUCUAUCCAGAUGAC [hsa-mir-1261],0.0944
23,GCUUAUGUCAUGACCUUGGGCUACUCAGGCUGUCUGCACAAUGAGC [hsa-mir-575],-0.342
24,GCUUAUUGAUGUAGCCAACAAGC [hsa-mir-3148],-0.225
25,GCUUCCGCUCUGCAGAGGC [hsa-mir-6822],-0.487
26,GCUUCUCUUUCUCACCAGCAGC [hsa-mir-4467],0.152
27,GCUUCUGCGUUAUCUGGAAGG [hsa-mir-4706],-0.131

# System: TO-3-N3 (biotin conjugate)
# Test: as above
# Conditions: RNA library: Library-2
# Outline: as §1
row,Sequence,pull-down binding Z-score
1,GCCUCUUCUCCAUGAGAGGC [hsa-mir-885],-0.689
2,GCCUGCCCUGAGUCCCCCAGCAGGU [hsa-mir-3907],1.45
3,GCCUGCGGGCAGGAAGCGGA [hsa-mir-3928],1.57
4,GCCUGUGUAGACGGGGACCUGCCCUGCAUGGGCACCCCCUCACUGGC [hsa-mir-6762],0.332
5,GCCUUGUGGCAUGGAGUUCAAGC [hsa-mir-107],0.468
6,GCCUUGUUGCAUAUGGAUCAAGC [hsa-mir-103a-1],-0.346
7,GCCUUUCAACAUAAUGGC [hsa-mir-548w],-0.0045
8,GCGCGGGAAAGUUCGGGAACGCGCG [hsa-mir-4479],0.386
9,GCGGCCGCGCUGGCCGCU [hsa-mir-3665],-0.0786
10,GCGGCUGUUAAUGAUUUUAACAGUUGC [hsa-mir-449c],-0.84
11,GCGGGAGCCAGGCCGC [hsa-mir-3185],-0.123
12,GCGGGGAACGAGGCCGUCGGCCAUUUUGUG [hsa-mir-632],1.2
13,GCGGGGGUGGGGGCCUCGCCCUGCUUGGGCCCUCCCUGAC [hsa-mir-6821],2.12
14,GCGGGGUGUGGUGGGGCUGGGGCUGGCCCCCUCCUCACACCUC [hsa-mir-6800],4.74
15,GCGGUUUUUGCCAUUACUUUUCAUUUUUACCAUUAAAAGUAAUGGCAAAAAGCAU [hsa-mir-548q],-0.964
16,GCGGUUUUUGCUAUUGGUUUUAAUGGC [hsa-mir-548au],-0.185
17,GCGUCACGUGCACCCAAGUGACGC [hsa-mir-6786],0.576
18,GCGUCGCUUCUCCCUAAUGUUGCC [hsa-mir-6781],-0.385
19,GCUAACUGUGACCUUAGC [hsa-mir-4729],0.00513
20,GCUACUGUCUGCACCUGUCACUAGCAGU [hsa-mir-130a],-0.279
21,GCUAGUGCUGGCUCAAUGCAAUGC [hsa-mir-502],-0.322
22,GCUCAAGCCACAGCAGGGUGUUUAGCGCUCUUCAGUGGCUCCAG [hsa-mir-1203],-0.00832
23,GCUCCCAACCAACCACUUCCACAUGUUUUGCUGGU [hsa-mir-4451],0.136
24,GCUCUAAUAAUUUAUUCUAAUAAUAAUUUAGAUC [hsa-mir-7976],-0.976
25,GCUCUGGGGAUUUGGUCUCACAGC [hsa-mir-3940],-0.54
26,GCUGAAACACAGUUGGUUUGUGUACACUGGC [hsa-mir-24-2],-0.415
27,GCUGAACCCCUGCCCCUGGAGCCCCCAGCAGGGCCCUC [hsa-mir-7162],0.665
28,GCUGAGCCCUUUGAUAAGGGGGAGGUU [hsa-mir-8080],0.21

row,Sequence,pull-down binding Z-score
1,GCUGAGGUUGCGUUGACGCUCGC [hsa-mir-1292],0.0445
2,GCUGCACUGUCUCCGUCUGCGG [hsa-mir-4519],-0.24
3,GCUGCAGAUCUUUGUCUAAGCAGC [hsa-mir-4498],-0.346
4,GCUGCAGGCAAAGCUGGGG [hsa-mir-711],0.431
5,GCUGCCAGGAAAUCCCUAUUUCAUAUAAGAGGGGGCUGGCUGGUUGC [hsa-mir-448],0.185
6,GCUGCCAUCUCCCACUGGCUGC [hsa-mir-4736],-0.569
7,GCUGCCCCUUUGCUCUCUGGGGUAGC [hsa-mir-3614],0.491
8,GCUGCUGCCCCAGAGGCCCAGCAGGUGUCCAGAAC [hsa-mir-6750],0.55
9,GCUGCUGGUGCUCAUCUCAGC [hsa-mir-6877],0.71
10,GCUGCUUGCACUCGUUCAGC [hsa-mir-3661],-0.0975
11,GCUGGAGUAAGGGCACGCCCGGGGCUGC [hsa-mir-4758],0.802
12,GCUGGAUUUCCCAGCUUGACUCUAAC [hsa-mir-200a],-0.14
13,GCUGGGCUGAGCUAACCAGGGCUGGGCUGAGC [hsa-mir-4537],0.138
14,GCUGGGGACUGGAGAA [hsa-mir-4489],2.13
15,GCUGGGGCGCGGGCUUUCGCUUUCAGUCGAGGGCUAGCGAGCGCAGC [hsa-mir-7846],0.914
16,GCUGGGGGUAAAUGACUUGCACAUGAACACAAC [hsa-mir-708],-0.0277
17,GCUGGUCGCGGGUUGUGGGGUUUAGGUCACCGGC [hsa-mir-5091],3.15
18,GCUGGUGACAUUGCUAAUUCAUUUCACACCAGC [hsa-mir-4293],-0.991
19,GCUGUGUUGAAUGAUUGGUGAGUUUGUUUGCUCAUUGAUUGAAUCACUGC [hsa-mir-3678],-0.734
20,GCUGUUGGUCGGGUUGUGACAUUGCCCGCUGUGGAGAUAACUGC [hsa-let-7i],-0.307
21,GCUUAUACGUGCCCUUGCU [hsa-mir-8075],-0.186
22,GCUUAUGGGGAUAUUGUGGUUGAUCUGUUCUAUCCAGAUGAC [hsa-mir-1261],0.283
23,GCUUAUGUCAUGACCUUGGGCUACUCAGGCUGUCUGCACAAUGAGC [hsa-mir-575],-0.544
24,GCUUAUUGAUGUAGCCAACAAGC [hsa-mir-3148],-0.527
25,GCUUCCGCUCUGCAGAGGC [hsa-mir-6822],0.134
26,GCUUCUCUUUCUCACCAGCAGC [hsa-mir-4467],-0.543
27,GCUUCUGCGUUAUCUGGAAGG [hsa-mir-4706],-0.466

# System: TO-N3-2 (biotin conjugate)
# Test: as above
# Conditions: RNA library: Library-2
# Outline: as §1
row,Sequence,pull-down binding Z-score
1,GCCUCUUCUCCAUGAGAGGC [hsa-mir-885],-1.37
2,GCCUGCCCUGAGUCCCCCAGCAGGU [hsa-mir-3907],0.912
3,GCCUGCGGGCAGGAAGCGGA [hsa-mir-3928],2.23
4,GCCUGUGUAGACGGGGACCUGCCCUGCAUGGGCACCCCCUCACUGGC [hsa-mir-6762],0.347
5,GCCUUGUGGCAUGGAGUUCAAGC [hsa-mir-107],1.54
6,GCCUUGUUGCAUAUGGAUCAAGC [hsa-mir-103a-1],0.388
7,GCCUUUCAACAUAAUGGC [hsa-mir-548w],-0.827
8,GCGCGGGAAAGUUCGGGAACGCGCG [hsa-mir-4479],1.72
9,GCGGCCGCGCUGGCCGCU [hsa-mir-3665],0.524
10,GCGGCUGUUAAUGAUUUUAACAGUUGC [hsa-mir-449c],-1.2
11,GCGGGAGCCAGGCCGC [hsa-mir-3185],0.896
12,GCGGGGAACGAGGCCGUCGGCCAUUUUGUG [hsa-mir-632],1.58
13,GCGGGGGUGGGGGCCUCGCCCUGCUUGGGCCCUCCCUGAC [hsa-mir-6821],2.31
14,GCGGGGUGUGGUGGGGCUGGGGCUGGCCCCCUCCUCACACCUC [hsa-mir-6800],3.96
15,GCGGUUUUUGCCAUUACUUUUCAUUUUUACCAUUAAAAGUAAUGGCAAAAAGCAU [hsa-mir-548q],-0.56
16,GCGGUUUUUGCUAUUGGUUUUAAUGGC [hsa-mir-548au],-0.183
17,GCGUCACGUGCACCCAAGUGACGC [hsa-mir-6786],0.796
18,GCGUCGCUUCUCCCUAAUGUUGCC [hsa-mir-6781],0.502
19,GCUAACUGUGACCUUAGC [hsa-mir-4729],-0.478
20,GCUACUGUCUGCACCUGUCACUAGCAGU [hsa-mir-130a],1.58
21,GCUAGUGCUGGCUCAAUGCAAUGC [hsa-mir-502],0.637
22,GCUCAAGCCACAGCAGGGUGUUUAGCGCUCUUCAGUGGCUCCAG [hsa-mir-1203],1.14
23,GCUCCCAACCAACCACUUCCACAUGUUUUGCUGGU [hsa-mir-4451],0.308
24,GCUCUAAUAAUUUAUUCUAAUAAUAAUUUAGAUC [hsa-mir-7976],-1.31
25,GCUCUGGGGAUUUGGUCUCACAGC [hsa-mir-3940],-0.339
26,GCUGAAACACAGUUGGUUUGUGUACACUGGC [hsa-mir-24-2],-0.00258
27,GCUGAACCCCUGCCCCUGGAGCCCCCAGCAGGGCCCUC [hsa-mir-7162],1.85

# From the supplement of paper PMC11865577
